From patent publication US20050059584A1, “Novel chemokine mimetics synthesis and their use” (priority 2002, published 2005)
Positions of bridges follow the written chain, without caps; N, C: chain ends.

Target: T1, CXCR4 receptor (Homo sapiens, UniProt P61073)
T1 construct: incubation of THP-1 cells with SDF-1; endogenous in cells; host or cells: THP-1 cells
Experiment: [Ca2+]i mobilization in fura-2,AM loaded THP-1 cells (FIG. 5, Table 6)
Type: cell-based
Conditions: 1×10^6/ml
Description: Fura-2,AM loaded THP-1 cells (1×10^6/ml) were stimulated with SDF-1, Compound A or Compound K at the concentrations indicated. The values represent the mean ± one S.D. of n=3 experiments.
Fura-2,AM loaded THP-1 cells (1×10^6/ml) were stimulated with native SDF-1 and the SDF-1 peptide analogs at the concentration of native SDF-1 concentration that gave the maximum [Ca^2+]1 stimulation (1 μM). The values represent the mean ± one S.D. of n=3 experiments.
This example illustrates the efficacy of SDF-1 and SDF-1 peptide analogs in mediating intracellular calcium mobilization ([Ca^2+]i). To illustrate that the binding of SDF-1 and SDF-1 peptide analogs results in the agonistic induction of the CXCR4 receptor, [Ca^2+]i mobilization assays were conducted, the results of which are shown in FIG. 5. To obtain the data shown in FIG. 5, fura-2,AM loaded THP-1 cells (1×10^6/ml) were stimulated with Compound A/SDF-1, SDF-1(1-14)-(G)4-SDF-1(55-67) Lys20/Glu24-cyclic amide (SEQ ID NO:809) or Compound K/SDF-1(1-14)-(G)4-SDF-1(55-67)-Glu24/Lys28-cyclic amide (SEQ ID NO:803) at the concentrations indicated (the values represent the mean ± one S.D. of n=3 experiments). […]

T1 sequence (P61073 whole entry): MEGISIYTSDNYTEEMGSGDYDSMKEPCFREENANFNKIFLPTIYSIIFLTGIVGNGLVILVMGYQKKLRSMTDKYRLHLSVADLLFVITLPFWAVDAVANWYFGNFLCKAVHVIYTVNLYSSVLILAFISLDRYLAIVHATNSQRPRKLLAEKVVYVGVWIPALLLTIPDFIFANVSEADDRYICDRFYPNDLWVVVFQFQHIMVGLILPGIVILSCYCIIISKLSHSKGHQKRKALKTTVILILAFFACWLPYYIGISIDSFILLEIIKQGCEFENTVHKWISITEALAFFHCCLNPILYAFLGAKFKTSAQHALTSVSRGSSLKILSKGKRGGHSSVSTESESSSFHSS

- EC50: 148 nM
Substance: H2N-Lys-Pro-Val-Ser-Leu-Ser-Tyr-Arg-Cys-Pro-Cys-Arg-Phe-Phe-[Gly-Gly-Gly-Gly]-Leu-Lys-Trp-Ile-Gln-Glu-Tyr-Leu-Glu-Lys-Ala-Leu-Asn-NH2 (H-KPVSLSYRCPCRFFGGGGLKWIQEYLEKALN-NH2; lactam 20-24; cysteine pairing not given here) [Compound A]
